Source: patent publication US20220340894A1 (CDR LIFE, published 2022)

Molecular target: T1, HLA-A2/MAGE-A4 complex (HLA-A*02:01 extracellular domain, human β2m, MAGE-A4 peptide 230-239) (human, UniProt P04439 25-299 at identity 0.94); P61769 21-119)
T1 construct: also called MAGE-A4/HLA-A2 complex; pMHC
Assay: phage display biopanning and screening of the lambda and optimized kappa libraries

Binder	binding result
M0862 scFv (scFv, Rabbit scFv from the biopanning screen) scFv: PEQLMESGGGLVTPGGVLTLTCTASGFSFSSYGVNWVRQAPGKGLEWIGFIFGDGTTYYANWAKGRFTISKTSTTVDLKMTSPTTEDTATYFCARDGYGGYDYIINLWGQGTLVTVSSGGGGSGGGGSGGGGSGGGGASAQVLTQTPASVSAAVGGTVSISCQSSQSVVNNNWLAWYQQKPGQPPKLLIYKASTLESGVPSRFKGSGSGTQFTLTISGVQADDAATYYCLGEFSCSSADCHAFGGGTELEIL	binds
M0852 scFv (scFv, Rabbit scFv from the biopanning screen) scFv: QQQLEESGGGLVTPGTPLTLTCTVSGFSLSNYAMGWVRQAPGKGLEWIGTINDGGTAFYANWLKGRFTISRTSTTVDLKITSPTTEDTATYFCARAYGSNGDVYWGYFNLWGQGTLVTVSSGGGGSGGGGSGGGGSGGGGASELVMTQTASPVSAAVGGTVTINCQASQSISSRSLSWYQQKPGQPPKLLIYEASKLASGVPSRFSGSGSGTQFTLTISGVQADDAATYYCQQGYSSSNVDNVFGGGTEVVVK	binds
M0861 scFv (scFv, Rabbit scFv from the biopanning screen) scFv: QSVKESGGRLVTPGTPLTLTCTVSGFSLSNYAMSWVRQAPGKGLEYIGIVSSGGTTYYASWAKGRFTISKTSTTVDLKITSPTTEDTATYFCAKDLYYGPTTYSAFNLWGQGTLVTISSGGGGSGGGGSGGGGSGGGGASELVLTQPASVQVNLGQTVSLTCTADTLSRSYASWYQLKPGQAPVLLIYRDTSRPSGVPDRFSGSSSGNTATLTISGAQAGDEGDYVCATSDGSGSNFQLFGGGTQLTVTG	binds
M0849 scFv (scFv, Rabbit scFv from the biopanning screen) scFv: QEQLEESGGGLVTPGGTLTLTCTVSGFSLSNYAMGWVRQAPGKGLEWIGTINDGGTAFYAKWLKGRFTISRTSTTVDLKITSPTTEDTATYFCARAYGSNGDVYWGYFNLWGQGTLVTISSGGGGSGGGGSGGGGSGGGGASELVMTQTPSSVSEPVGGTVTIKCQASQSIGSNLAWYQQRPGQPPKLLIYSASTLASGVSSRFKGSGSGTESTLTISGVQAADAATYYCQQGYSSSNVDNVFGGGTELEIL	binds
M0863 scFv (scFv, Rabbit scFv from the biopanning screen) scFv: PEQLMESGGGLVTPGGVLTLTCTASGFSFSSYGVNWVRQAPGKGLEWIGFIFGDGTTYYANWAKGRFTISKTSTTVDLKMTSPTTEDTATYFCARDGYGGYDYIINLWGQGTLVTVSSGGGGSGGGGSGGGGSGGGGASAQVLTQTPASVSAAVGGTVSISCQSSQSVVNNNWLAWYQQKPGQPPKLLIYKASTLESGVPSRFKGSGSGTQFTLTISGVQADDAATYYCQGAYSGNIYYNAFGGGTEVVVK	binds
M0851 scFv (scFv, Rabbit scFv from the biopanning screen) scFv: QEQLEESGGGLVTPGTPLTLTCTASGFSLSSYAMIWVRQAPGKGLEWIGTINDGGTAFYASWVKGRFTISRTSTTVDLKITSPTTEDTATYFCARAYGSNGDVYWGYVNLWGQGTLVTISSGGGGSGGGGSGGGGSGGGGASELVMTQTPSSVSAAVGGTVTINCQASQNIGSVFAWYQQKPGQPPKLLIYKASSLASGVPSRFKGSGSGTQFTLTISGVEAADAATYYCQQGASSSNVDNIFGGGTEVVVK	binds
M0855 scFv (scFv, Rabbit scFv from the biopanning screen) scFv: QQQLEESGGGLVTPGTPLTLTCTVSGIDLSSYAMGWVRQAPGKGLEWIGTINDGGSAFYASWVKGRFTISRTSTTVDLKITSPTAEDTATYFCAKTYGTNGDVYWGYFNLWGQGTLVTISSGGGGSGGGGSGGGGSGGGGASELVMTQTPASVSEPVGGTVTIKCQASQSIGSNLAWYQQKPGQPPKLLIYYESILASGVPSRFSGSGSGTEYTLTISGAQADDAATYYCQQGYSSSNIDNAFGGGTEVVVK	binds
M0856 scFv (scFv, Rabbit scFv from the biopanning screen) scFv: QQQLEESGGGLVTPGTPLTLTCTVSGIDLSSYAMGWVRQAPGKGLEWIGTINDGGSAFYASWVKGRFTISRTSTTVDLKITSPTAEDTATYFCAKTYGTNGDVYWGYFNLWGQGTLVTISSGGGGSGGGGSGGGGSGGGGASELVMTQTPASVSEPVGGTVTIKCQASQSIGSNLAWYQQKPGQPPKLLIYYESILASGVPSRFSGSGSGTEYTLTISGAQADDAATYYCQQGYSSSNILNAFGGGTEVVVK	binds
M0853 scFv (scFv, Rabbit scFv from the biopanning screen) scFv: QQQLVESGGGLVTPGTPLTLTCTVSGFSLSNYAMGWVRQAPGKGLEWIGTINDGGTAFYANWLKGRFTISRTSTTVDLKITSPTTEDTATYFCARAYGSNGDVYWGYFNLWGQGTLVTVSSGGGGSGGGGSGGGGSGGGGASELVMTQTASPVSAAVGGTVTINCQASQSISSRSLSWYQQKPGQPPKLLIYEASKLASGVPSRFSGSGSGTQFTLTISGVQADDAATYYCQQGYSSSNVDNFGGGTEVVVK	binds
M0859 scFv (scFv, Rabbit scFv from the biopanning screen) scFv: QSVKESGGRLVTPGTPLTLTCTVSGFSLSNYAMSWVRQAPGKGLEYIGIVSSGGTTYYASWAKGRFTISKTSTTVDLKITSPTTEDTATYFCAKDLYYGPTTYSAFNLWGQGTLVTISSGGGGSGGGGSGGGGSGGGGASELVLTQPQSVSGSLGQTVSISCKRARDNIEDYYVHWYQQHPGKTPTIVIHKDDQRPSGVPDRFSGSIDSTSNSASLTITGLLAEDEADYFCQSFDNDASPVFGGGTQLTVTG	binds

Second part, the binder after the results:

binding result	Binder
binds	M0854 scFv (scFv, Rabbit scFv from the biopanning screen) scFv: QSVKESWGRLVTPGGSLTLTCTVSGIDLNNYAMGWVRQAPGKGLEWIGTINNDGATYYPSWARGRFTISKTSTTVDLKITSPTTEDTATYFCARTYGSNGDVYWGYFNLWGQGTLVTVSSGGGGSGGGGSGGGGSGGGGASALELTQTPASVEVAVGGTVTINCQASQSIGGALNWYQQKSGQPPKLLIYLASTLASGVSSRFKGSGSGTQFTLTISGVEAADAATYYCQQGYSASNIDNAFGGGTEVVVK
binds	M0850 scFv (scFv, Rabbit scFv from the biopanning screen) scFv: QEQLEESGGGLVTPGTPLTLTCTASGFSLSSYAMIWVRQAPGKGLEWIGTINDGGTAFYANWVKGRFTISRTSTTVDLKMTSPTTEDTATYFCARAYGSNGDVYWGYVNLWGQGTLVTVSSGGGGSGGGGSGGGGSGGGGASELVMTQTPASVSEPVGGTVTIKCQASQSIGSNLAWYQQKPGQPPKLLIYAAANLASGVSSRFKGSRSGTEYTLTISGVQAADAATYYCQQGYSSSNVANVFGGGTELEIL
binds	M0860 scFv (scFv, Rabbit scFv from the biopanning screen) scFv: QSVKESGGRLVTPGTPLTLTCTVSGFSLSNYAMSWVRQAPGKGLEYIGIVSSGGTTYYASWAKGRFTISKTSTTVDLKITSPTTEDTATYFCAKDLYYGPTTYSAFNLWGQGTLVTISSGGGGSGGGGSGGGGSGGGGASELVLTQPQSVSGSLGQTVSISCKRARDNIEDYYVHWYQQYPGKTPTIVIYKDDQRPSGVPDRFSGSIDSTSNSASLTITGLLAEDEADYFCQSFDNNANVVFGGGTQLTVTG
binds	M0858 scFv (scFv, Rabbit scFv from the biopanning screen) scFv: QSVEESGGRLVTPGTPLTLTCTVSGFSLSNYAMSWVRQAPGKGLEYIGIVSSGGTTYYASWAKGRFTISKTSTTVDLKITSPTTEDTATYFCAKDLYYGPTTYSAFNLWGQGTLVTVSSGGGGSGGGGSGGGGSGGGGASELVLTQPQSVSGSLGQTVSISCKRARNNIEDYYVHWYQQHPGRSPTIVIHKDDQRPSGVPDRFSGSIDSTSNSASLTITGLLAEDEADYFCQSFDNNANPVFGGGTQLTVTG
binds	M0857 scFv (scFv, Rabbit scFv from the biopanning screen) scFv: QQQLVESGGRLVTPGTPLTLTCTASGIDLNSNAMSWVRQGPGKGLEWIGDIWSGGYTDYASWAKGRFTISKTSTTVDLKMTSLTAADTATYFCARDRLAGDGVVDYDLWGQGTLVTISSGGGGSGGGGSGGGGSGGGGASELDMTQTPASVEVAVGGTVTIKCQASQNIYSNLAWYQQKPGQRPKLLIYGASTLASGVPSRFKGSGSGTEYTLTINGVQAADAATYYCQQGFSSSNVDNVFGGGTEVVVK
binds	M0866 scFv (scFv, Rabbit scFv from the biopanning screen) scFv: QSVKESGGRLVTPGTPLTLTCTASGFTISSSAISWVRQAPGKGLEYIGIIRSGGTTDYASWAKGRFAISKTSTTVDLKITSPTTEDTATYFCARDPPYITSTYFDLWGQGTLVTVSSGGGGSGGGGSGGGGSGGGGASELVLTQPQSVSGSLGQTVSISCKRARDSVESYDVHWYQQHPGKTPTIVIYKDDQRPSGVPDRFSGSIDSTSNSASLTITGLLAEDEADYFCQSFDGDAVVFGGGTQLTVTG
binds	M0864 scFv (scFv, Rabbit scFv from the biopanning screen) scFv: QSVKESGGGLVTPGTPLTLTCTVSGFSLSTYAISWVRQAPGKGLEWIGFIDTVDSAYYASWAKGRFTISKTSSTTVDLKMTSPTTEDTATYFCAKLRYGDYGDYTLWGQGTLVTVSSGGGGSGGGGSGGGGSGGGGASELVMTQTPSPVSGAVGGTVTIKCQASQNIYSYLAWYQQKPGQPPKLLIYKASTLASGVPSRVKGSGSGTEYTLTISGVQAADAATYYCQCTYYDSNTFGGGTEVVVK
binds	M0848 scFv (scFv, Rabbit scFv from the biopanning screen) scFv: QEQLVESGGGLVTPGTPLTLTCTVSGFSLSSYAMGWVRQAPGKGLEWIGTINDGGTAFYASWVKGRFTISRTSTTVDLRVTSPTTEDTATYFCARAYGSNGDVYWGYFNLWGQGTLVTVSSGGGGSGGGGSGGGGSGGGGASELDLTQTPASVEVAVGGTVTIKCQASQSIGSYLSWYQQKPGQRPKLLIFRASTLASGVSSRFKGSGSGTQFTLTISGVECADAATYYCQQGYSSTNLDNVFGGGTEVVVK
binds	M0865 scFv (scFv, Rabbit scFv from the biopanning screen) scFv: PAALMESGGRLVTPGTPLTLTCTVSGIDLSTFAMTWVRQAPGKGLEWLGIINTGGSAYYTSWAKGRFTISRTSTTVDLKITSPTTEDTATYFCARGDWSSATDLWGQGTLVTISSGGGGSGGGGSGGGGSGGGGASDPDMTQTPSSVSAAVGGTVTINCQASQSVYDNKVLAWYRQKPGQPPKLLIYKASTLASGVPSRFKGRGSGTQFTLTISGVQADDAATYYCLGEFSCSSADCHAFGGGTELEIL
